Results on five molecules are retold here after publication PMC5651216, “Structural Basis for a Safety-Belt Mechanism That Anchors Condensin to Chromosomes”.

Data set [1] relates to Ct Ycg1 24-1006;Ct Brn1 PhiD 515-634 (Chaetomium thermophilum;Chaetomium thermophilum). The data set is described as follows: EMSA. To be noted: protein conc. at which free DNA is depleted; EMSA: 10 mM HEPES-KOH pH 7.5, 125 mM NaCl, 5 mM MgCl2, 1 mM DTT, 30 min, gels at 4 C, 0.2 uM 35-bp or 10 nM 2.1-kb DNA; ITC: 25 mM Tris-HCl pH 7.5, 200 mM …. In general terms: Mobility shift assays separate free from complexed probe on a gel.

Data set [2] concerns Ct Ycg1 24-1006;Ct Brn1 deltaN 539-634 (Chaetomium thermophilum;Chaetomium thermophilum). The data set is described as follows: EMSA. To be noted: protein conc. at which free DNA is depleted; EMSA: 10 mM HEPES-KOH pH 7.5, 125 mM NaCl, 5 mM MgCl2, 1 mM DTT, 30 min, gels at 4 C, 0.2 uM 35-bp or 10 nM 2.1-kb DNA; ITC: 25 mM Tris-HCl pH 7.5, 200 mM ….
Data set [3] concerns Ct Ycg1 24-1006;Ct Brn1 515-634 (Chaetomium thermophilum;Chaetomium thermophilum). The data set is described as follows: EMSA. The note with it: protein conc. at which free DNA is depleted; EMSA: 10 mM HEPES-KOH pH 7.5, 125 mM NaCl, 5 mM MgCl2, 1 mM DTT, 30 min, gels at 4 C, 0.2 uM 35-bp or 10 nM 2.1-kb DNA; ITC: 25 mM Tris-HCl pH 7.5, 200 mM ….
The test system is the same in data set [4]. The data set is described as follows: ITC. To be noted: 2 mM Mg2+, 25 C; EMSA: 10 mM HEPES-KOH pH 7.5, 125 mM NaCl, 5 mM MgCl2, 1 mM DTT, 30 min, gels at 4 C, 0.2 uM 35-bp or 10 nM 2.1-kb DNA; ITC: 25 mM Tris-HCl pH 7.5, 200 mM ….
Data set [5] deals with Sc Smc2;Sc Smc4;Sc Ycs4;Sc Brn1 (Saccharomyces cerevisiae;Saccharomyces …, UniProt P38989;Q12267;Q06156;P38170 1-1170;1-1418;1-1176;1-754, |||). The data set is described as follows: EMSA; lacks Ycg1; EMSA: 10 mM HEPES-KOH pH 7.5, 125 mM NaCl, 5 mM MgCl2, 1 mM DTT, 30 min, gels at 4 C, 0.2 uM 35-bp or 10 nM 2.1-kb DNA; ITC: 25 mM Tris-HCl pH 7.5, 200 mM NaCl, 2 mM MgCl2, 1 mM BME, 25 C. To be noted: protein: recombinant;recombinant;recombinant;recombinant; tags: ;C-terminal StrepII x3;;C-terminal His12-HA3; copies: 1;1;1;1; label: 5' 6-FAM on strand 1; blunt.

The target in data set [6] is Sc Smc2;Sc Smc4;Sc Ycs4;Sc Ycg1;Sc Brn1 BC1/2 (Saccharomyces cerevisiae;Saccharomyces …, UniProt P38989;Q12267;Q06156;Q06680;P38170 1-1170;1-1418;1-1176;1-1035;1-754, ||||K409D;R411D;K414D;K451D;K452D;K454D;K456D;K457D). The experiment in a line: EMSA; EMSA: 10 mM HEPES-KOH pH 7.5, 125 mM NaCl, 5 mM MgCl2, 1 mM DTT, 30 min, gels at 4 C, 0.2 uM 35-bp or 10 nM 2.1-kb DNA; ITC: 25 mM Tris-HCl pH 7.5, 200 mM NaCl, 2 mM MgCl2, 1 mM BME, 25 C. To be noted: protein: recombinant;recombinant;recombinant;recombinant;recombinant; tags: ;C-terminal StrepII x3;;;C-terminal His12-HA3; copies: 1;1;1;1;1; label: 5' 6-FAM on strand 1; blunt.

For data set [7], the target named is T1, Sc Ycg1 crystallization construct;Sc Brn1 short kleisin loop (Saccharomyces cerevisiae;Saccharomyces …, UniProt Q06680;P38170 6-932;384-529, del499-555|del418-444).
T1 sequence 1: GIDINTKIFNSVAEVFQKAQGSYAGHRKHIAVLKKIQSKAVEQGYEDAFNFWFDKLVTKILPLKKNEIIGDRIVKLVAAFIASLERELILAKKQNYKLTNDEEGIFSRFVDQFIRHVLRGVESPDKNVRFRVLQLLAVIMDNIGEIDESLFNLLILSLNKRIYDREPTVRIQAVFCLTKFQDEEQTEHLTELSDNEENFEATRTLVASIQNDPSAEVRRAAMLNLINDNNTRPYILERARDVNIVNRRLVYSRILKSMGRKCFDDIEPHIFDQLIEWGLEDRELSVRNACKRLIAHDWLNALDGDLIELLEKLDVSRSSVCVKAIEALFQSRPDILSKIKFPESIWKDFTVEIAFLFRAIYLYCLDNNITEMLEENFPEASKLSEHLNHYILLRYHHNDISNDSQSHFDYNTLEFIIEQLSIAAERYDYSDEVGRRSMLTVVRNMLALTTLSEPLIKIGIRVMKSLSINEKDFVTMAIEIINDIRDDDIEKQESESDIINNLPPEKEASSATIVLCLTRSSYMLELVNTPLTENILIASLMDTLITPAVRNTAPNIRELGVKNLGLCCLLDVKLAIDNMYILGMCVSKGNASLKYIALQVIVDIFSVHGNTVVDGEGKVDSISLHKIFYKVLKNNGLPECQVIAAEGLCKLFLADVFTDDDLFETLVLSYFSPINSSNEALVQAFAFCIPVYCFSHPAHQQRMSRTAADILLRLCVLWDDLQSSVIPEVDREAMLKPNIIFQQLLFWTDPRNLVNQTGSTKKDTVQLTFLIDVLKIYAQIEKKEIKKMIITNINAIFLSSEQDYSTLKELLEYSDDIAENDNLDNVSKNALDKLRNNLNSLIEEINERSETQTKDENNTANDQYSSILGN
T1 sequence 2: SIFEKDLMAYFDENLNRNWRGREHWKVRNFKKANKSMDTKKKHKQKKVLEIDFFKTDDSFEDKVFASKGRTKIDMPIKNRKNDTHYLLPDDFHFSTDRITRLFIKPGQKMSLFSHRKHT
The data set is described as follows: X-ray crystallography; 5 mM MgSO4; EMSA: 10 mM HEPES-KOH pH 7.5, 125 mM NaCl, 5 mM MgCl2, 1 mM DTT, 30 min, gels at 4 C, 0.2 uM 35-bp or 10 nM 2.1-kb DNA; ITC: 25 mM Tris-HCl pH 7.5, 200 mM NaCl, 2 mM MgCl2, 1 mM BME, 25 C. To be noted: protein: recombinant;recombinant; tags: untagged;N-terminal His6-HRV3C; copies: 1;1; blunt, self-complementary.

Data set [8] concerns the target T2, Sc Ycg1 crystallization construct;Sc Brn1 384-529 (Saccharomyces cerevisiae;Saccharomyces …, UniProt Q06680;P38170 6-932;384-529, del499-555|).
T2 sequence 1: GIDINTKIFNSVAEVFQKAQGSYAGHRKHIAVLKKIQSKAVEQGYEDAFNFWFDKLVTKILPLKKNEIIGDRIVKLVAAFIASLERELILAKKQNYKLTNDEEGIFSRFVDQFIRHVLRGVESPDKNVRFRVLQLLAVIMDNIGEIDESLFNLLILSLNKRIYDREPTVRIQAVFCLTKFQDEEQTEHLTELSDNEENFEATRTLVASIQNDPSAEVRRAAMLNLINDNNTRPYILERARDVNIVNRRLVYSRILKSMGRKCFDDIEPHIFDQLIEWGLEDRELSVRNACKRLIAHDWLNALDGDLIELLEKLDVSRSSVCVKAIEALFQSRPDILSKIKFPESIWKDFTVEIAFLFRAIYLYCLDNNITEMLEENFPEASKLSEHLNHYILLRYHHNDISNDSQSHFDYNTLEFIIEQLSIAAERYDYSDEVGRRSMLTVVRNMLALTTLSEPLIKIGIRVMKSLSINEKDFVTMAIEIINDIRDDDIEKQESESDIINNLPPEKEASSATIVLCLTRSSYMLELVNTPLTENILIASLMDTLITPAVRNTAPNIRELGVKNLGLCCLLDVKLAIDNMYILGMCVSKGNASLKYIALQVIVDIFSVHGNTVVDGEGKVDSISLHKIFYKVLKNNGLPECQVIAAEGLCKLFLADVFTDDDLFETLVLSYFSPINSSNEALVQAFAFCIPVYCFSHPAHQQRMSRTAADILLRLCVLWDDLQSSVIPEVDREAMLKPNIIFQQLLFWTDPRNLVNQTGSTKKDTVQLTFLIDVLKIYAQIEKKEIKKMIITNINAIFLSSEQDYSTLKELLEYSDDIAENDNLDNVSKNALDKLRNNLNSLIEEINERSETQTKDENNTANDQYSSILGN
T2 sequence 2: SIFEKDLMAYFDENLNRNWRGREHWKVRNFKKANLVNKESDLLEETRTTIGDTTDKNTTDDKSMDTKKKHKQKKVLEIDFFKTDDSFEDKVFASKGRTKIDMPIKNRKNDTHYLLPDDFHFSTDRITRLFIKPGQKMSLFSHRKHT
The experiment in a line: X-ray crystallography; crystal form I, 2.98 A, 5 mM MgSO4; EMSA: 10 mM HEPES-KOH pH 7.5, 125 mM NaCl, 5 mM MgCl2, 1 mM DTT, 30 min, gels at 4 C, 0.2 uM 35-bp or 10 nM 2.1-kb DNA; ITC: 25 mM Tris-HCl pH 7.5, 200 mM NaCl, 2 mM MgCl2, 1 mM BME, 25 C. The note with it: protein: recombinant;recombinant; tags: untagged;N-terminal His6-HRV3C; copies: 1;1; blunt, self-complementary.

Sc Smc2;Sc Smc4;Sc Ycs4;Sc Brn1, sequence (P38989 whole entry, chain 1 of 4): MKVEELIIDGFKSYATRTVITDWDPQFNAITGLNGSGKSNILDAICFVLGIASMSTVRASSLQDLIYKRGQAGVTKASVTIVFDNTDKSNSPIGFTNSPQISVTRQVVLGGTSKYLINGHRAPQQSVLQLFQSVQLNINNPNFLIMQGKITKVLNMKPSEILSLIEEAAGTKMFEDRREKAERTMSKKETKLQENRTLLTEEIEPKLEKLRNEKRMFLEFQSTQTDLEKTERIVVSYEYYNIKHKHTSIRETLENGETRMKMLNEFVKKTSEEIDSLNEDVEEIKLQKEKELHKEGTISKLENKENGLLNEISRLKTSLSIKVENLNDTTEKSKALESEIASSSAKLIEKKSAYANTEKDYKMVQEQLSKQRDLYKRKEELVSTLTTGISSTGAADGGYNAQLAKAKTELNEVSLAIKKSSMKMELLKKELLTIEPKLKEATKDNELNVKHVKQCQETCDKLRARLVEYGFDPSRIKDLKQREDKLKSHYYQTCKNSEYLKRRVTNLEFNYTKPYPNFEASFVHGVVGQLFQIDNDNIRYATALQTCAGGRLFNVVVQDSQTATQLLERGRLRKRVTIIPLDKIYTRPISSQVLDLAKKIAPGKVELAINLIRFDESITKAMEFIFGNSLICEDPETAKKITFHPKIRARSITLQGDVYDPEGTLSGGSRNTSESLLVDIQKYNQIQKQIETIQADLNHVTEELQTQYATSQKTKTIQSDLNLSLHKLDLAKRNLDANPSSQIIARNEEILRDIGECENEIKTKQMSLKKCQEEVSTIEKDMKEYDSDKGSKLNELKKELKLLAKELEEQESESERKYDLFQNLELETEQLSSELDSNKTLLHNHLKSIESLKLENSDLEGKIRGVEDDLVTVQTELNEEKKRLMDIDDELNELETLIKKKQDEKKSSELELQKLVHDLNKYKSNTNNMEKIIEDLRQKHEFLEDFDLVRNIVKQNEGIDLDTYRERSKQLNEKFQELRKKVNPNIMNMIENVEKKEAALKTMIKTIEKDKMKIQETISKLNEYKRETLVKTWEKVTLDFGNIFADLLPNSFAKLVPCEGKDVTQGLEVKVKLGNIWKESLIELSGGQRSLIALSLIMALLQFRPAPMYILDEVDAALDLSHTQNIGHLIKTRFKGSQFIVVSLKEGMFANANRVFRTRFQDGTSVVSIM
Sc Smc2;Sc Smc4;Sc Ycs4;Sc Brn1, sequence (Q12267 whole entry, chain 2 of 4): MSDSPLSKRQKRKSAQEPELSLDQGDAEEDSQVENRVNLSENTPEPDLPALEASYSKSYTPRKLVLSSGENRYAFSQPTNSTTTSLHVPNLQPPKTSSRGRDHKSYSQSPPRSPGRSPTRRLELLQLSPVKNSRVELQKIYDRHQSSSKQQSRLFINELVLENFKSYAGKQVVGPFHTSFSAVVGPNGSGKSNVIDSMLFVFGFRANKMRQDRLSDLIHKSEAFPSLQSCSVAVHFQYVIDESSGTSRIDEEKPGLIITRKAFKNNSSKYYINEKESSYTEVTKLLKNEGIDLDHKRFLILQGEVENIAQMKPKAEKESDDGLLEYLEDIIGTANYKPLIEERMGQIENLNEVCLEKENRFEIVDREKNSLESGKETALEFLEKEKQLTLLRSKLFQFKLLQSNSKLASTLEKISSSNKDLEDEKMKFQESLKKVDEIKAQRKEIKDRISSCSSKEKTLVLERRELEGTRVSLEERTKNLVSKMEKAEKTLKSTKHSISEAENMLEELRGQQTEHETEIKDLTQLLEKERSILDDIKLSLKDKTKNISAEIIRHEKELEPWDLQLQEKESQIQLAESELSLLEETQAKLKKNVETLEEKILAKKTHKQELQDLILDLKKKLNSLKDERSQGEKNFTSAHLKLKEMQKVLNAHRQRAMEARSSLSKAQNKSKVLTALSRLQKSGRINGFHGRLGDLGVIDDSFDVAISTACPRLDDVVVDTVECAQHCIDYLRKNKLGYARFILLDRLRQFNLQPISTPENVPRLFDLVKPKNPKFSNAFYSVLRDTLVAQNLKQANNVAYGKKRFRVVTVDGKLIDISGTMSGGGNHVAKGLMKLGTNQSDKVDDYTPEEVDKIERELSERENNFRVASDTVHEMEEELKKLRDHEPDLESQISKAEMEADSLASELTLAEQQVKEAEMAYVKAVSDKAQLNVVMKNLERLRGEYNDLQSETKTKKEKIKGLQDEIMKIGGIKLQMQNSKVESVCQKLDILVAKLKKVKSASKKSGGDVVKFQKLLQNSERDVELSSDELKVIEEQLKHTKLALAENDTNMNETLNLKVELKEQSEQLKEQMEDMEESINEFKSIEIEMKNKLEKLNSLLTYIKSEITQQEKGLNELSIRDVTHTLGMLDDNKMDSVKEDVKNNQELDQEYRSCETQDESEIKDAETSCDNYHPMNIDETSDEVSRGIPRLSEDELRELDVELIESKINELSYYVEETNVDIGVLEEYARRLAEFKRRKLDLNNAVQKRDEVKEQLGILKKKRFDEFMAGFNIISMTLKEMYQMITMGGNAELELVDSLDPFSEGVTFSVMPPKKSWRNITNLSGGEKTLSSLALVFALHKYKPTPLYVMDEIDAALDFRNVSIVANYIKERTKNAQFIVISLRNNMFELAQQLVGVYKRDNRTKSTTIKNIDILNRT
Sc Smc2;Sc Smc4;Sc Ycs4;Sc Brn1, sequence (Q06156 whole entry, chain 3 of 4): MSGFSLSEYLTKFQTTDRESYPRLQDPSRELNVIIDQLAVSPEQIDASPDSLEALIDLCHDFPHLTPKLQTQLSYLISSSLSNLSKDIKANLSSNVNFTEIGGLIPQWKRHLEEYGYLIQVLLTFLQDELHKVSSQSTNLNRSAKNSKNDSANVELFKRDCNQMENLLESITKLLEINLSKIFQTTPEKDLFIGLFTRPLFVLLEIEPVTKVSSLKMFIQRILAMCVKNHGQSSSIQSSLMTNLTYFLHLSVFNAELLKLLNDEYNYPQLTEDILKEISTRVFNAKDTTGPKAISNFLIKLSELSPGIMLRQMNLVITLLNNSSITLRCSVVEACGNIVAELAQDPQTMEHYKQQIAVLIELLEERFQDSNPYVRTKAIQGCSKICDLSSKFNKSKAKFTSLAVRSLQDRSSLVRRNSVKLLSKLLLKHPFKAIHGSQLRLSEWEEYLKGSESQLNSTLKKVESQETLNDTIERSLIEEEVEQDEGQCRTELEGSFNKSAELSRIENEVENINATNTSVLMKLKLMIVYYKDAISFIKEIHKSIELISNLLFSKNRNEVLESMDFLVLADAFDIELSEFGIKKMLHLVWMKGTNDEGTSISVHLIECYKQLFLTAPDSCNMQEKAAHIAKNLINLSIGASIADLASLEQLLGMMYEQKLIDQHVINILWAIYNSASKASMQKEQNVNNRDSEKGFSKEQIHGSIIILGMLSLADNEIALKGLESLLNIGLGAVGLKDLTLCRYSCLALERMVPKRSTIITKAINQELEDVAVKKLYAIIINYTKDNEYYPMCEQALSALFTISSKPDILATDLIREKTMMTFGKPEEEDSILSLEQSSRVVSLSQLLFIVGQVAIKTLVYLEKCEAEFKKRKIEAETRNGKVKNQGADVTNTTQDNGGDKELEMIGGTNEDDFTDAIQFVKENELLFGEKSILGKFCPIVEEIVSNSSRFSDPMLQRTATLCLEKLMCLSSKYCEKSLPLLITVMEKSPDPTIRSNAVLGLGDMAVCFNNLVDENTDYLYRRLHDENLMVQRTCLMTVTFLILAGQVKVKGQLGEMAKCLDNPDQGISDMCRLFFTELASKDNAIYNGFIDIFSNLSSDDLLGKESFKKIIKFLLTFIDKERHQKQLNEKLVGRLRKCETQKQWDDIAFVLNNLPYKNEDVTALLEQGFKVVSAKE
Sc Smc2;Sc Smc4;Sc Ycs4;Sc Brn1, sequence (P38170 whole entry, chain 4 of 4): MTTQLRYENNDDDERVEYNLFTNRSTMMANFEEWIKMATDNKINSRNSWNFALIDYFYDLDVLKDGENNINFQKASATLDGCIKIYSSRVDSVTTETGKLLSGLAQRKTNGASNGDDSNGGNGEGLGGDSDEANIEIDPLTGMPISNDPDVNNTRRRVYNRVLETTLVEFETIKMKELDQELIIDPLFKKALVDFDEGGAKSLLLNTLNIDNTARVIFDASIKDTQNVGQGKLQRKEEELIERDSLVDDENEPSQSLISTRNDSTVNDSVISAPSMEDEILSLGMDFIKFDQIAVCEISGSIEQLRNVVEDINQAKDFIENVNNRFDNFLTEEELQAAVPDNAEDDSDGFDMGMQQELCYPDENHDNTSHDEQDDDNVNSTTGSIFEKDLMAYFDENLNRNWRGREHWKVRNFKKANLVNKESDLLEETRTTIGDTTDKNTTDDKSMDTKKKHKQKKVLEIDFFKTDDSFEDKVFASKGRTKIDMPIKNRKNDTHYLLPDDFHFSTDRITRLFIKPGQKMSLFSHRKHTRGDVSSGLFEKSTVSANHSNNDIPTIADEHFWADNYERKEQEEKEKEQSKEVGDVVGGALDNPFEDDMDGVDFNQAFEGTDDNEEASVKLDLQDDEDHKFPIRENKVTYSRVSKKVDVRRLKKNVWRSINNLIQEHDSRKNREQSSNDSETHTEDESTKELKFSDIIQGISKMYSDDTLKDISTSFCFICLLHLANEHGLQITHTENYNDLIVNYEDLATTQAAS

As for 2.1-kb circular supercoiled plasmid, the binding signal in data set [1] worked out at 83 nM; in data set [2], 83 nM; in data set [3] it was 21 nM.
In the case of “CCTATAGTGAGTCACAATTCACTGG (double strand) [25-bp dsDNA]”, the Kd (commonly the equilibrium constant for the complex coming apart) in data set [4] was 1700 nM.
On to “CCTATAGTGAGTCGTTCGATATTACAATTCACTGG (double strand) [35-bp dsDNA]”, for which the binding signal in data set [1], in data set [2] and in data set [3] was 800 nM throughout.

B1: 35-bp dsDNA (dsDNA)
DNA 1: CCTATAGTGAGTCGTTCGATATTACAATTCACTGG
DNA 2: CCAGTGAATTGTAATATCGAACGACTCACTATAGG
For the molecule B1, the binding result in data set [5] and in data set [6] was “no binding” throughout.

B2: 18-bp palindromic dsDNA (dsDNA)
DNA 1: GATGTGTAGCTACACATC
DNA 2: GATGTGTAGCTACACATC
In the case of B2, the binding result in data set [7] and in data set [8] was “binds” in each case.
